{"source": "paper PMC6002512", "about": "“The Defense-Related Isoleucic Acid Differentially Accumulates in Arabidopsis Among Branched-Chain Amino Acid-Related 2-Hydroxy Carboxylic Acids” (Frontiers in Plant Science, 2018)", "proteins": {"B1": {"name": "UGT76B1 (Arabidopsis thaliana) (protein)", "chain": "METRETKPVIFLFPFPLQGHLNPMFQLANIFFNRGFSITVIHTEFNSPNSSNFPHFTFVSIPDSLSEPESYPDVIEILHDLNSKCVAPFGDCLKKLISEEPTAACVIVDALWYFTHDLTEKFNFPRIVLRTVNLSAFVAFSKFHVLREKGYLSLQETKADSPVPELPYLRMKDLPWFQTEDPRSGDKLQIGVMKSLKSSSGIIFNAIEDLETDQLDEARIEFPVPLFCIGPFHRYVSASSSSLLAHDMTCLSWLDKQATNSVIYASLGSIASIDESEFLEIAWGLRNSNQPFLWVVRPGLIHGKEWIEILPKGFIENLEGRGKIVKWAPQPEVLAHRATGGFLTHCGWNSTLEGICEAIPMICRPSFGDQRVNARYINDVWKIGLHLENKVERLVIENAVRTLMTSSEGEEIRKRIMPMKETVEQCLKLGGSSFRNLENLIAYILSF", "notes": "full coding region including the 5' ATG codon cloned into pDEST15; N-terminal GST fusion; recombinant"}}, "assay_type_in_all_cases": "biochemical, Arabidopsis thaliana", "key": {"[1]": {"substrate": "CC(C)CC(O)C(=O)O", "assay": "HPLC with radiodetection of glucosylated product, non-linear regression", "details": "2 mM 14C-UDP-glucose, 0.1 M Tris-HCl pH 7.5, 30°C", "description": "(§1) HPLC with radiodetection of glucosylated product, non-linear regression on UGT76B1"}, "[2]": {"substrate": "CC[C@H](C)[C@H](O)C(=O)O", "assay": "HPLC with radiodetection of glucosylated product, non-linear regression", "details": "2 mM 14C-UDP-glucose, 0.1 M Tris-HCl pH 7.5, 30°C", "description": "as §1"}, "[3]": {"substrate": "O=C(O)c1ccccc1O", "assay": "purified protein", "details": "2 mM UDP-glucose, 0.1 M Tris-HCl pH 7.5, 30°C"}}}
{"protein": "B1", "values": [{"measurement": "Km", "setting": "[1]", "value": "461 ± 79", "unit": "µM"}, {"measurement": "kcat", "setting": "[1]", "value": "0.582 ± 0.035", "unit": "s⁻¹"}, {"measurement": "kcat/Km", "setting": "[1]", "value": 1260, "unit": "M⁻¹ s⁻¹"}, {"measurement": "Km", "setting": "[2]", "value": "472 ± 97", "unit": "µM"}, {"measurement": "kcat", "setting": "[2]", "value": "0.914 ± 0.067", "unit": "s⁻¹"}, {"measurement": "kcat/Km", "setting": "[2]", "value": 1940, "unit": "M⁻¹ s⁻¹"}, {"measurement": "Km", "setting": "[3]", "value": "151 ± 28", "unit": "µM"}, {"measurement": "kcat", "setting": "[3]", "value": "0.331 ± 0.016", "unit": "s⁻¹"}, {"measurement": "kcat/Km", "setting": "[3]", "value": 2200, "unit": "M⁻¹ s⁻¹"}]}
